How the values were obtained:
[1] = clinical trials, moderate to severe psoriasis; ref [7]–[9]; cited from earlier work
Source text: Augmented expression of IL-17A is linked with various autoimmune disorders. Therefore, blocking activity of IL-17A has been of great therapeutic interest. Two approved antibody based therapeutics targeting IL-17A, Secukinumab and Ixekizumab, are currently being used for treatment of moderate to severe psoriasis. […] Moreover, current advanced clinical trials have shown promising results for treatment of ankylosing spondylitis and psoriatic arthritis ...

[2] = biological target: T1, IL-17A (Homo sapiens, UniProt Q16552); test: Surface plasmon resonance (BIAcore T200) binding of peptides to captured Avi-tagged IL-17A; settings: 8°C, 50 μl/min, 10 mM HEPES pH 7.5, 150 mM NaCl, 0.005% P20, 3% DMSO; global fit, 1:1 binding model; read-out: SPR KD1
T1 construct: His-tag; Flag-tag; made in house; host or cells: Sf9 insect cells (baculovirus)

[3] = biological target: Avi-tagged IL-17A (IL-17A molecule with a single biotin tag per dimer) (human) (UniProt Q16552); test: SPR; Avi-tagged IL-17A (6000–9000 RU) captured on a streptavidin chip; peptides flowed at 50 μl/min; 8°C; 10 mM HEPES pH 7.5, 150 mM NaCl, 0.005% P20, 3% DMSO; global fit, 1:1 binding model
[4] = biological target: Avi-tagged IL-17A (IL-17A molecule with a single biotin tag per dimer) (human) (UniProt Q16552); test: AlphaScreen or HTRF; AlphaLISA competition: 2 nM IL-17RA-flag and 2 nM Avi-tagged IL-17A-His with peptide dilutions, 2 h at room temperature; streptavidin donor and anti-FLAG acceptor beads; 20 mM HEPES, 150 mM NaCl, 0.05% Tween-20, 0.1% HSA, pH 7, 1% DMSO; relative IC50, four parameter fit
[5] = biological target: the molecule itself; test: crystal structure; IL-17A at 7.1 mg/ml with 2 mM peptide; crystals at 8°C in 20% PEG 3350, 200 mM lithium chloride; 1.6 Å

Q: With “Ixekizumab: approved antibody based therapeutic targeting IL-17A” as the molecule, how does the “patient population with at least 75% reduction of disease severity (PASI75)” value [1] read?
A: 80%

Q: Which Kd [2] does the source give for CSCC[C@@H]1NC(=O)[C@H](CC(=O)O)NC(=O)[C@H](Cc2ccc(O)cc2)NC(=O)[C@H](CCC(=O)O)NC(=O)[C@H](CC(C)C)NC(=O)[C@H](C(C)C)NC(=O)[C@H](Cc2c[nH]c3ccccc23)NC(=O)[C@@H](N)CSSC[C@@H](C(=O)N[C@@H](CCCNC(=N)N)C(=O)O)NC(=O)[C@H](Cc2c[nH]cn2)NC(=O)[C@H](CC(C)C)NC(=O)[C@H](C)NC(=O)CNC(=O)[C@H](Cc2ccccc2)NC1=O [18–902] here?
A: 1.3 µM

Q: For “Secukinumab: approved antibody based therapeutic targeting IL-17A”, which “patient population with at least 75% reduction of disease severity (PASI75)” value [1] is on record?
A: 80%

Q: What does the source list for CLDLQYDMFGALHCV [18–913]?
A: Kd [3]: 3.87 µM; koff [3]: 0.0528 s⁻¹; kon [3]: 13700 M⁻¹ s⁻¹; IC50 [4]: 1.9 µM

B1: IL-17A residues 38–155 with the mutations N68D/C129S (ligand, human, UniProt Q16552 38-155, looked up)
chain: DKNFPRTVMVNLNIHNRNTNTNPKRSSDYYDRSTSPWNLHRNEDPERYPSVIWEAKCRHLGCINADGNVDYHMNSVPIQQEILVLRREPPHSPNSFRLEKILVSVGCTCVTPIVHHVA
notes: construct numbers and the two mutations count on the precursor protein; Crystallography construct
Q: Does B1 bind [5]?
A: binds

Source: PMC5766103 (PLoS ONE, 2018)
